From patent US20250237662A1

B1: rabbit anti-human IgG monoclonal antibody clone 11G5 (antibody, V domains shown)
VH: QSLEESGGDLVKPGASLTLTCTASGFSFSSSYYMCWVRQAPGKRLEWIACIYGGGLSNTYYAGWAKGRFTISKTSSTTVTLQMTSLTAADTATYFCARDATSGDYLNLWGPGTLVTVSS
VL: AVVMTQTASPVSGAVGGTVTINCQASQSISASALSWYQQKPGQPPKLLIYAASTLESGVPSRFKGSGSGTQFTLTISGVQCDDAATYYCAYDGYRLSSADNIFGGGTEVVVKG
B2: rabbit anti-human IgG monoclonal antibody clone 2C5 (antibody, V domains shown)
VH: QEQLVESGGDLVKPGASLTLTCTASGFSFSSGYYMCWVRQAPGKGLEWIACIYGGALTNTYYATWAKGRFTISKTSSTTVTLQMTSLTAADTATYFCARDLGAAGDAYNLWGPGTLVTVSS
VL: ASDMTQTPASVSAAVGGTVTIKCQASESIYSGLAWYQQKPGQPPKLLIFDASDLASGVPSRFKGSRSETEYTLTISDLECADAATYYCQCTDRNSITSYAFGGGTEVVVKG

Legend:
[1] = biological target: humanized development candidate monoclonal antibody IgG4 (hIgG4); assay: Gyrolab, mAb as capture, hIgG4 1000 ng/ml
[2] = biological target: humanized development candidate monoclonal antibody IgG4 (hIgG4); assay: ELISA, medium of transfected HEK293F; signal on hIgG4 over signal on cynoIgG
[3] = biological target: drug: a monoclonal antibody of human IgG4 isotype (PandA assay); assay: PandA assay, signal to noise against the negative control
[4] = biological target: drug: a monoclonal antibody of human IgG4 isotype (PandA assay); assay: PandA assay, monkey matrix, mAb 0.75 ug/ml
[5] = biological target: humanized development candidate monoclonal antibody IgG4 (hIgG4); assay: direct ELISA, hIgG4 coated, B-cell culture medium
[6] = biological target: humanized development candidate monoclonal antibody IgG4 (hIgG4); assay: Gyrolab, mAb as capture, hIgG4 8 ng/ml
[7] = biological target: humanized development candidate monoclonal antibody IgG4 (hIgG4); assay: Gyrolab, mAb as capture, hIgG4 1000 ng/ml, against the blank
[8] = biological target: humanized development candidate monoclonal antibody IgG4 (hIgG4); assay: Gyrolab, mAb as capture, hIgG4 0.32 ng/ml
[9] = biological target: humanized development candidate monoclonal antibody IgG4 (hIgG4); assay: Gyrolab, mAb as capture, hIgG4 1.6 ng/ml, against the blank
[10] = biological target: drug: a monoclonal antibody of human IgG4 isotype (PandA assay); assay: PandA assay, mAb 0.75 ug/ml in monkey plasma
[11] = biological target: humanized therapeutic monoclonal antibody IgG1 (hIgG1); assay: ELISA, medium of transfected HEK293F; signal on hIgG1 over signal on cynoIgG
[12] = biological target: humanized therapeutic monoclonal antibody IgG1 (hIgG1); assay: direct ELISA, hIgG1 coated, B-cell culture medium
[13] = biological target: drug: a monoclonal antibody of human IgG4 isotype (PandA assay); assay: PandA assay (PEG precipitation, acid dissociation, MSD plate, sulfo-TAG-drug), mAb 5 ug/ml in monkey plasma
[14] = biological target: drug: a monoclonal antibody of human IgG4 isotype (PandA assay); assay: PandA assay, mAb 0.5 ug/ml in monkey plasma
[15] = biological target: humanized development candidate monoclonal antibody IgG4 (hIgG4); assay: Gyrolab, mAb as capture, hIgG4 5000 ng/ml
[16] = biological target: humanized development candidate monoclonal antibody IgG4 (hIgG4); assay: Gyrolab, mAb as capture, hIgG4 8 ng/ml, against the blank
[17] = biological target: internal research reagent human Fab (hFab); assay: SPR (Biacore T200), mAb captured by anti-rabbit mAb on CM5, antigen 80-0 nM, 1:1 fit
[18] = biological target: humanized therapeutic monoclonal antibody IgG1 (hIgG1); assay: as above
[19] = biological target: humanized development candidate monoclonal antibody IgG4 (hIgG4); assay: as above
[20] = biological target: drug: a monoclonal antibody of human IgG4 isotype (PandA assay); assay: PandA assay, mAb 1 ug/ml in monkey plasma
[21] = biological target: drug: a monoclonal antibody of human IgG4 isotype (PandA assay); assay: PandA assay, monkey matrix, mAb 5 ug/ml
[22] = biological target: drug: a monoclonal antibody of human IgG4 isotype (PandA assay); assay: PandA assay, monkey matrix, mAb 0.5 ug/ml
[23] = biological target: drug: a monoclonal antibody of human IgG4 isotype (PandA assay); assay: PandA assay, monkey matrix, mAb 1 ug/ml
[24] = biological target: humanized development candidate monoclonal antibody IgG4 (hIgG4); assay: Gyrolab, mAb as capture, hIgG4 200 ng/ml
[25] = biological target: cynomolgus monkey IgG (cynoIgG); assay: direct ELISA, cynoIgG coated (hIgG4/CynoIgG screen), B-cell culture medium
[26] = biological target: humanized development candidate monoclonal antibody IgG4 (hIgG4); assay: Gyrolab, mAb as capture, hIgG4 200 ng/ml, against the blank
[27] = biological target: humanized development candidate monoclonal antibody IgG4 (hIgG4); assay: Gyrolab, mAb as capture, hIgG4 5000 ng/ml, against the blank
[28] = biological target: cynomolgus monkey IgG (cynoIgG); assay: direct ELISA, cynoIgG coated (hIgG1/CynoIgG screen), B-cell culture medium
[29] = biological target: humanized development candidate monoclonal antibody IgG4 (hIgG4); assay: Gyrolab, mAb as capture, hIgG4 1.6 ng/ml
[30] = biological target: humanized development candidate monoclonal antibody IgG4 (hIgG4); assay: Gyrolab, mAb as capture, hIgG4 0.32 ng/ml, against the blank
[31] = biological target: humanized development candidate monoclonal antibody IgG4 (hIgG4); assay: Gyrolab, mAb as capture, hIgG4 40 ng/ml
[32] = biological target: humanized development candidate monoclonal antibody IgG4 (hIgG4); assay: Gyrolab, mAb as capture, hIgG4 40 ng/ml, against the blank

Row | Binder | Av. Resp. [1] | ELISA signal ratio hIgG4/CynoIgG [2] | S/N [3] | S/N (monkey) [4] | OD450 [5] [OD450] | Av. Resp. [6] | S/B [7] | Av. Resp. [8] | S/B [9] | ECL Signal [10] | ELISA signal ratio hIgG1/CynoIgG [11] | OD450 [12] [OD450] | ECL Signal [13] | ECL Signal [14] | Av. Resp. [15] | S/B [16] | Kd [17] [nM] | koff [17] [s⁻¹] | kon [17] [M⁻¹ s⁻¹] | Kd [18] [nM] | other results
1 | B1 | 394 | 5.19 | 1.8 | 1.92 | 1.32 | 20.3 | 53.1 | 7.5 | 1.3 | 257 | 4.94 | 1.25 | 1550 | 171 | 468 | 2.7 | 0.591 | 0.000531 | 899000 | 0.187 | koff [18]: 2.52e-05 s⁻¹; kon [18]: 135000 M⁻¹ s⁻¹; Kd [19]: 0.0429 nM; koff [19]: 5.8e-06 s⁻¹; kon [19]: 135000 M⁻¹ s⁻¹; ECL Signal [20]: 320; S/N (monkey) [21]: 9.76; S/N (monkey) [22]: 1.58; S/N (monkey) [23]: 2.4; Av. Resp. [24]: 184; OD450 [25]: 0.159 OD450; S/B [26]: 24.8; S/B [27]: 63.3; OD450 [28]: 0.161 OD450; Av. Resp. [29]: 9.8; S/B [30]: 1; Av. Resp. [31]: 60.9; S/B [32]: 8.2
2 | B2 | 232 | 7.91 | 1.98 | 2.51 | 1.29 | 6.6 | 110 | 2.1 | 1.4 | 323 | 7.72 | 1.24 | 2180 | 188 | 317 | 3.2 | 0.55 | 0.00146 | 2.65e+06 | 0.277 | koff [18]: 3.8e-05 s⁻¹; kon [18]: 137000 M⁻¹ s⁻¹; Kd [19]: 0.1 nM; koff [19]: 1.36e-05 s⁻¹; kon [19]: 135000 M⁻¹ s⁻¹; ECL Signal [20]: 426; S/N (monkey) [21]: 15.7; S/N (monkey) [22]: 1.93; S/N (monkey) [23]: 3.39; Av. Resp. [24]: 87.7; OD450 [25]: 0.124 OD450; S/B [26]: 41.7; S/B [27]: 151; OD450 [28]: 0.107 OD450; Av. Resp. [29]: 3; S/B [30]: 1; Av. Resp. [31]: 23.4; S/B [32]: 11.1
